In test [1] the target is T1, human CD134 (full-length, on cells) (human, UniProt P43489 29-277).
T1 construct: also called OX40; TNFRSF4
T1 sequence: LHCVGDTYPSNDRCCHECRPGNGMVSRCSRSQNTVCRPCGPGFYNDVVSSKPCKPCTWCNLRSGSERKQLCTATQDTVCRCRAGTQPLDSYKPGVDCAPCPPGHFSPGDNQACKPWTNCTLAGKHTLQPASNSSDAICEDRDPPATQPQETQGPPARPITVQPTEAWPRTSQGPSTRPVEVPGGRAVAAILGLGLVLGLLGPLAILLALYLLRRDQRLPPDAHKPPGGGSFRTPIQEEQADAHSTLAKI
Put plainly: flow cytometry, stable CD134 293-F clone no. 23. The protocol: (§1) Full-length human CD134 (SEQ ID NO. 1) was re-cloned in a pcDNA3.1-derived expression plasmid (see Example 11 (d) below). […] After extensive washing in PBS/BSA/NaN₃, cells were subsequently incubated with 1:200 diluted PE-conjugated goat anti-mouse IgG (Fcγ specific) antibodies (Jackson ImmunoResearch) or with 1:200 diluted PE-conjugated goat anti-human IgG (Fcγ specific) antibodies (Jackson ImmunoResearch) for 30 minutes at 4° C. After extensive washing in PBS/BSA/NaN₃, cells were fixed in 2% formaldehyde in PBS/BSA/NaN₃ for 30 minutes at 4° C. Binding of antibodies was measured using flow cytometry (FACSCalibur; BD Biosciences).

Test [2] addresses T2, human CD134-derived peptide (truncated CRD3 A1-module-CRD4 subdomain A1-module) (human).
T2 construct: Synthesized by Pepscan Presto; coated on ELISA plates
T2 peptide: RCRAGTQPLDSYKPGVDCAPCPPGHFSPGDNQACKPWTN
Put plainly: peptide ELISA, 10 ng/well peptide coated. The protocol:
(§2) After adding 1 M […], optical densities was measured at a wavelength of 450 nm (reference wavelength of 655 nm) using a microplate reader (BioRad).
(§3) Ninety six-wells flat-bottom ELISA plates (Corning) were coated with 10 ng/well human CD134-derived peptide (synthesized by Pepscan Presto, Lelystad, The Netherlands), which corresponded to amino acid sequence of truncated CRD3 A1-module-CRD4 subdomain A1 module (see SEQ ID NO. 38) or with 10 ng/well human fibronectin-derived control peptide (synthesized by Pepscan Presto, Lelystad, The Netherlands), which corresponded to amino acid sequence of extra type III structural domain (see SEQ ID NO. 37) in PBS o/n at 4° C. After extensive washing in PBS/0.05% Tween 20, plates were blocked in PBS/0.05% Tween 20/1% BSA fraction V (Roche) for 1 hour at RT. […] After extensive washing in PBS/0.05% Tween 20, binding of antibodies was determined with 1:5000 diluted horseradish peroxidase-conjugated goat anti-human IgG Fcγ-specific antibodies (Jackson ImmunoResearch) for 1 hour at RT, followed by a ready-to-use solution of TMB substrate (Invitrogen) for colorimetric detection. After adding 1 M H₂SO₄, optical densities was measured at a wavelength of 450 nm (reference wavelength of 655 nm) using a microplate reader (BioRad).

The target of test [3] is T3, recombinant human CD134:human Fcγ (IgG1) fusion protein (human, UniProt P01857-1 100-330 = IgG part, limits assumed).
T3 construct: domain: Fcγ (IgG1); Bought (R&D Systems); also called rhuCD134
Kind of test: ELISA, plate-bound CD134:Fc 50 ng/well. The protocol:
Ninety six-wells flat-bottom ELISA plates (Corning) were coated with 50 ng/well recombinant human CD134:human Fcγ (IgG1) fusion protein (R&D Systems) in PBS o/n at 4° C. After extensive washing in PBS/0.05% Tween 20, plates were blocked in PBS/0.05% Tween 20/1% BSA fraction V (Roche) for 1 hour at RT. […] After extensive washing in PBS/0.05% Tween 20, binding of antibodies was determined with 1:5000 diluted horseradish peroxidase-conjugated goat anti-mouse (Fcγ specific) antibodies (Jackson ImmunoResearch) or with 1:4000 diluted horseradish peroxidase-conjugated goat anti-human κ-specific antibodies (Southern Biotech) for 1 hour at RT, followed by a ready-to-use solution of TMB substrate (Invitrogen) for colorimetric detection. After adding 1 M H₂SO₄, optical densities were measured at, a wavelength of 450 nm (reference wavelength of 655 nm) using a microplate reader (BioRad).

In test [4] the target is T4, human fibronectin-derived control peptide (extra type III structural domain) (human).
T4 construct: Synthesized by Pepscan Presto; coated on ELISA plates
T4 peptide: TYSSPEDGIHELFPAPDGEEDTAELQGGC
Kind of test: peptide ELISA. The method, then:
as §2, §3

Test [5] deals with T1, human CD134 (full-length, on cells). Kind of test: competition flow cytometry, stable CD134 293-F clone no. 5; competitor biotinylated mouse 12H3 at 700 ng/mL. The method, then: Full-length human CD134 (SEQ ID NO1) was re-cloned in a pcDNA3.1-derived expression plasmid (see Example 11 (c) above). […] After extensive washing in PBS/BSA/NaN₃, cells were fixed in 2% formaldehyde in PBS/BSA/NaN₃ for 30 minutes at 4° C.

Test [6] addresses T5, truncated human CD134 'truncated (tc) CRD4' construct (human, UniProt P43489 147-277).
T5 construct: also called truncated CRD4
T5 sequence: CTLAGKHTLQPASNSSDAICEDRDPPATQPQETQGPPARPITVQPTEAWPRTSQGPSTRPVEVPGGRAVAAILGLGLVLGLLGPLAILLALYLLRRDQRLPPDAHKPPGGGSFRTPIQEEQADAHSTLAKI
Kind of test: flow cytometry, transiently transfected 293-F cells (parental 12H3: binding completely absent on tcCRD4). The protocol:
(§4) After 48-72 h, surface human CD134 expression on transfected cells was analyzed by FACS analysis. To this end, transfected cells were harvested and put at 1-2×10⁶ cells/mL in ice-chilled PBS/BSA/NaN₃. […] After extensive washing in PBS/BSA/NaN₃, cells were subsequently incubated with 1:200 diluted PE-conjugated goat anti-human IgG (Fcγ specific) antibodies (Jackson ImmunoResearch) for 30 minutes at 4° C. After extensive washing in PBS/BSA/NaN₃, cells were fixed in 2% formaldehyde in PBS/BSA/NaN₃ for 30 minutes at 4° C. Binding of antibodies was measured using flow cytometry (FACSCalibur; BD Biosciences).

The target of test [7] is T3, recombinant human CD134:human Fcγ …. Kind of test: competition ELISA, plate-bound CD134:Fc; competitor biotinylated mouse 12H3 at 20 ng/mL. The protocol:
Ninety six-wells flat-bottom ELISA plates (Corning) were coated with 50 ng/well recombinant human CD134:human Fcγ (IgG1) fusion protein (R&D Systems) in PBS o/n at 4° C. After extensive washing in PBS/0.05% Tween 20, plates were blocked in PBS/0.05% Tween 20/1% BSA fraction V (Roche) for 1 hour at RT. […] After adding 1 M H₂SO₄, optical densities were measured at a wavelength of 450 nm (reference wavelength of 655 nm) using a microplate reader (BioRad).

For test [8], the target named is T6, truncated human CD134 'CRD4' construct (human, UniProt P43489 127-277).
T6 construct: also called truncated human CD134 variant that lacked CRD1-CRD2-truncated CRD3 A1-module
T6 sequence: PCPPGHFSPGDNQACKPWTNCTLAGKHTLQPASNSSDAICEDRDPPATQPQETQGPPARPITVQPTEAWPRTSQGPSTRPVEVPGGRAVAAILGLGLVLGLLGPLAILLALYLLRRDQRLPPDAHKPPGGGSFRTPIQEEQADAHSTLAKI
Put plainly: flow cytometry, transiently transfected 293-F cells, 20.0 µg/mL. The protocol: as §4, with “48” for “48-72”, “PBS/BSA/NaN₃ supplemented with 50 μg/mL purified human IgG (Sigma; blocking Fey receptors).” for “PBS/BSA/NaN₃.”, “goat anti-mouse IgG (Fcγ specific) antibodies (Jackson ImmunoResearch) or with 1:200 diluted PE-conjugated goat” for “goat”, “anti-human IgG (Fcγ specific) antibodies (Jackson ImmunoResearch) for 30 minutes at 4° C. […] After extensive washing in PBS/BSA/NaN₃, cells were subsequently incubated with 1:200 diluted PE-conjugated goat anti-mouse” for “anti-human”

Test [9] addresses T7, truncated human CD134 'CRD3' construct (human, UniProt P43489 108-277).
T7 construct: also called truncated human CD134 variant that lacked CRD1-CRD2
T7 sequence: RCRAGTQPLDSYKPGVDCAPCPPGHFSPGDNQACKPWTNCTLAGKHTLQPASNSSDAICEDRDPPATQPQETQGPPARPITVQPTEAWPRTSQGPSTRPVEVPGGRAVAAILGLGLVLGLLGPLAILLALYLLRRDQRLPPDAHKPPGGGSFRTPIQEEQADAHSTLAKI
The test is described as above. The protocol: as §4, with “48” for “48-72”, “PBS/BSA/NaN₃ supplemented with 50 μg/mL purified human IgG (Sigma; blocking Fey receptors).” for “PBS/BSA/NaN₃.”, “goat anti-mouse IgG (Fcγ specific) antibodies (Jackson ImmunoResearch) or with 1:200 diluted PE-conjugated goat” for “goat”, “anti-human IgG (Fcγ specific) antibodies (Jackson ImmunoResearch) for 30 minutes at 4° C. […] After extensive washing in PBS/BSA/NaN₃, cells were subsequently incubated with 1:200 diluted PE-conjugated goat anti-mouse” for “anti-human”

In test [10] the target is T1, human CD134 (full-length, on cells). Kind of test: flow cytometry, stable CD134 293-F clone no. 5. The method, then: as §1
Test [11] shares this target. Put plainly: flow cytometry, PHA-stimulated human CD4+ T lymphocytes (data not shown). The protocol: PHA-stimulated (at 10 μg/mL for 1 day; see above) human CD134 expressing T lymphocytes were generated. […] After extensive washing in PBS/BSA/NaN₃, cells were subsequently incubated with 1:50 diluted FITC-conjugated mouse anti-human IgG4 antibodies (Sigma) for 30 minutes at 4° C. […] After extensive washing in PBS/BSA/NaN₃, cells were fixed in 2% formaldehyde in PBS/BSA/NaN₃ for 30 minutes at 4° C. Binding of antibodies was measured using flow cytometry (FACSCalibur; BD Biosciences).

Test [12] has the same target. Kind of test: flow cytometry, OX40L 10.0 µg/mL with anti-polyhistidine antibody. The method, then:
PHA-stimulated (at 10 μg/mL for 1 day; see above) human CD134 expressing T lymphocytes were generated. […] After extensive washing in PBS/BSA/NaN₃, cells were fixed in 2% formaldehyde in PBS/BSA/NaN₃ for 30 minutes at 4° C.

B1: chimeric human IgG4κ anti-human CD134 antibody clone 12H3 (antibody, V domains shown)
VH: EVQLQQSGPELVKPGASVKISCKTSGYTFKDYTMHWVKQSHGKSLEWIGGIYPNNGGSTYNQNFKDKATLTVDKSSSTAYMEFRSLTSEDSAVYYCARMGYHGPHLDFDVWGAGTTVTVSP
VL: DIVMTQSHKFMSTSLGDRVSITCKASQDVGAAVAWYQQKPGQSPKLLIYWASTRHTGVPDRFTGGGSGTDFTLTISNVQSEDLTDYFCQQYINYPLTFGGGTKLEIKR
notes: Murine V-regions linked to human IgG4 and human kappa constant regions; also called chimeric 12H3 (human IgG4/κ)
In the case of B1, the EC50 is over 0.2 µg/mL in test [1] and about 0.1 µg/mL in test [3]. For the same molecule, the binding result is recorded as “binds” in test [2], “no binding (tested: 50.0 µg/mL)” in [4] and “no binding (tested: 20.0 µg/mL)” in [6]. The results for the IC50 in [5] and in [7] were about 3.5 µg/mL and about 0.75 µg/mL, respectively.

B2: humanized IgG4κ anti-human CD134 antibody clone 20E5 version 20E5_VL1VH1 (antibody, V domains shown)
VH: QVQLVQSGAEVKKPGASVKVSCKASGYTFTSYVMHWVRQAPGQRLEWMGYINPYNDGTKYNEKFKGRVTITSDTSASTAYMELSSLRSEDTAVYYCANYYGSSLSMDYWGQGTLVTVSS
VL: DIQMTQSPSSLSASVGDRVTITCRASQDISNYLNWYQQKPGKAPKLLIYYTSRLHSGVPSRFSGSGSGTDYTLTISSLQPEDFATYYCQQGNTLPWTFGQGTKVEIKR
notes: Stabilized human IgG4 (Angal et al.)/κ; also called 20E5_VL1H1; VL1H1
On to B2, for which the binding result in [8], in test [9] and in test [10] was “binds” throughout. Also, the EC50 in test [3] is about 0.15 µg/mL.

B3: chimeric human IgG4κ anti-human CD134 antibody clone 20E5 (antibody, V domains shown)
VH: EVQLQQSGPELVKPGASVKMSCKASGYTFTSYVMHWVKQKPGQGLEWIGYINPYNDGTKYNEKFKGKATLTSDKSSSTAYMELSSLTSEDSAVYYCANYYGSSLSMDYWGQGTSVTVSS
VL: DIQMTQTTSSLSASLGDRVTISCRASQDISNYLNWYQQKPDGTVKLLIYYTSRLHSGVPSRFSGSGSGTDYSLTISNLEQEDIATYFCQQGNTLPWTFGGGTKLEIKR
notes: Murine V-regions linked to human IgG4 and human kappa constant regions
As for B3, the EC50 in test [3] was about 0.1 µg/mL; in test [11] it was about 1 µg/mL.

B4: polyhistidine-tagged recombinant human OX40 ligand (ligand, UniProt P23510 51-183, looked up)
chain: QVSHRYPRIQSIKVQFTEYKKEKGFILTSQKEDEIMKVQNNSVIINCDGFYLISLKGYFSQEVNISLHYQKDEEPLFQLKKVRSVNSLMVASLTYKDKVYLNVTTDNTSLDDFHVNGGELILIHQNPGEFCVL
notes: Bought; used together with mouse anti-polyhistidine antibody (clone AD1.1.10); also called CD252; not shown: polyhistidine tag
With B4, in test [12], the binding result is recorded as “binds”.
